The results in this text go back to patent US20140072613A1 (published 2014).

Holding throughout (test): cell-based or functional assay
The target in one assay is TLK2(h) (human, UniProt Q86UE8 1-772, limits assumed).
A further assay concerns the target T1, Bmx(h) (human, UniProt P51813 1-675, limits assumed).
T1 sequence (looked up): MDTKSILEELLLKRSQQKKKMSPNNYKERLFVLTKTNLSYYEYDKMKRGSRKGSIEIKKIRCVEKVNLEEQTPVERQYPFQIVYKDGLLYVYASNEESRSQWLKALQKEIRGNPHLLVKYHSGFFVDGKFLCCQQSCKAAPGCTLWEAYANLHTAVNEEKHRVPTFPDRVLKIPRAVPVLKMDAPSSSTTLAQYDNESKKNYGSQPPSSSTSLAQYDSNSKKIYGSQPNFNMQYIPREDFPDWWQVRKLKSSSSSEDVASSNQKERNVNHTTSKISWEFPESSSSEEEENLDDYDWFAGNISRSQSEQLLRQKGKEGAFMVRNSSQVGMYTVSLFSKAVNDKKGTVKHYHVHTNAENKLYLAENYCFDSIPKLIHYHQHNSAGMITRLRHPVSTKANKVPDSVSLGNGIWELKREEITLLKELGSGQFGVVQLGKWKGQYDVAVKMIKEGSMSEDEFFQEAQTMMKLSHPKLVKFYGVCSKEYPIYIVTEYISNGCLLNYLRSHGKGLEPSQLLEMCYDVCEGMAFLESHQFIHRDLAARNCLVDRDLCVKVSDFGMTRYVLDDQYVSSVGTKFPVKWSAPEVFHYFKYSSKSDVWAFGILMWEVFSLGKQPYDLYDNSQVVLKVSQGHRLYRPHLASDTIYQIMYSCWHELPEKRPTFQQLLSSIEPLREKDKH

In the next assay the target is Lck(h) (human, UniProt P06239 1-509).
Sequence of Lck(h) (P06239 whole entry): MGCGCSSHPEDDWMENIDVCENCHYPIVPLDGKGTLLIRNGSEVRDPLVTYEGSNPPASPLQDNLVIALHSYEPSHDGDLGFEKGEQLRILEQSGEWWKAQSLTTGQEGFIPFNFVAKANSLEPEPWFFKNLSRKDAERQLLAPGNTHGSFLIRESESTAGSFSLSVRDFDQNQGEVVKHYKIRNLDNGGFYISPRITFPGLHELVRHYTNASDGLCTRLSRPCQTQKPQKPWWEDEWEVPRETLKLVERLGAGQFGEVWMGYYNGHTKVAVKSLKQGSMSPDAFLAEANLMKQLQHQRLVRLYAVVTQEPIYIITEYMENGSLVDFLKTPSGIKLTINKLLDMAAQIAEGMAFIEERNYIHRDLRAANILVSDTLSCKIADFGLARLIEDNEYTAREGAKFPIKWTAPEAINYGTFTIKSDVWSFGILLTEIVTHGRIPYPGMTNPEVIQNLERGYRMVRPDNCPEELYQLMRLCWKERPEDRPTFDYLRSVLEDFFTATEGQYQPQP

Sequence of TLK2(h) (Q86UE8 whole entry): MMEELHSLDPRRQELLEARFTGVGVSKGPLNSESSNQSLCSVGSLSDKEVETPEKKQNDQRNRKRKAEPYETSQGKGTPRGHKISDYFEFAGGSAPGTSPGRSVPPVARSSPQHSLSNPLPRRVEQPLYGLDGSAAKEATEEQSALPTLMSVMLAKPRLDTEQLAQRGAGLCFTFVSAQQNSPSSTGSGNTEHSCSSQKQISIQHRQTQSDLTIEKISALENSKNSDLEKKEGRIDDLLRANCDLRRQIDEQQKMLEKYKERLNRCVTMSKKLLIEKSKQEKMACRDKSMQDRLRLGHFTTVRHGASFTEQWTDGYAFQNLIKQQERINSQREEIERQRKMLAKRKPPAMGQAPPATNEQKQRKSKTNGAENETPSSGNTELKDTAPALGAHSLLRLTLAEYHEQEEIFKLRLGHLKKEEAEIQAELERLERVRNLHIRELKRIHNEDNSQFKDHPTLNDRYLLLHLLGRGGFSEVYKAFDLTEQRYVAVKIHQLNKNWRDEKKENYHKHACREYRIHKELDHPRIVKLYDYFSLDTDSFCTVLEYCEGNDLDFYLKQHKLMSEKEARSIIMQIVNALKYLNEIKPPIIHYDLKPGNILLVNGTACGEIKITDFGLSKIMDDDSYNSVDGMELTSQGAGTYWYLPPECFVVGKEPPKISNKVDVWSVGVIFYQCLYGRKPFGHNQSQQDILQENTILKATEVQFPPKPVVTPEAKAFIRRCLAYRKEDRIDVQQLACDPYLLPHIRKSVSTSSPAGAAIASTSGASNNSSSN

B1: MMI-0400 (peptide)
peptide: KAFAKLAARLYRKALARQLGVAA
On to B1, for which the figures for the “% activity, 100 µM” value with TLK2(h) and in the assay with Bmx(h) were 151% and 26%, respectively.

B2: MMI-0300 (peptide)
peptide: FAKLAARLYRKALARQLGVAA
As to B2, in the assay with Lck(h), the “% activity, 100 µM” value is -2%.
